Results reported in PMC3025952, “Characterization of a core fragment of the rhesus monkey TRIM5α protein” (BMC Biochemistry, 2011).

B1: BCCL2 protein, wild-type (B-box 2, coiled coil and linker 2 region of rhesus monkey TRIM5α), His6-tagged, from E. coli (domain or fragment)
chain: GSGLVPRGSASMSDSEVNQEAKPEVKLSPEEGQKVDHCARHGEKLLLFCQEDSKVICWLCERSQEHRGHHTFLMEEVAQEYHVKLQTALEMLRQKQQEAEKLEADIREEKASWKIQIDYDKTNVSADFEQLREILDWEESNELQNLEKEEEDILKSLTKSETEMVQQTQYMRELISELEHRLQGSMMDLLQGVDGIIKRIENMTLKKPKTFHKNQRRVFRAPDLKGMLDMFRELTDA
notes: vector-derived spacer between the His6 tag and E83 of TRIM5αrh; Predicted molecular weight with tag and spacer 29.026 kD; also called wild-type (wt); core fragment of TRIM5αrh; source: E. coli BL21(DE3)pLysS, purified (Ni-NTA, SEC, anion exchange); not shown: His6, N-terminal, kept
B2: BCCL2 LLER protein (L105E, L106E, E120R, R121E), His6-tagged, from E. coli (domain or fragment, rhesus monkey)
chain: GSGLVPRGSASMSDSEVNQEAKPEVKLSPEEGQKVDHCARHGEKLEEFCQEDSKVICWLCRESQEHRGHHTFLMEEVAQEYHVKLQTALEMLRQKQQEAEKLEADIREEKASWKIQIDYDKTNVSADFEQLREILDWEESNELQNLEKEEEDILKSLTKSETEMVQQTQYMRELISELEHRLQGSMMDLLQGVDGIIKRIENMTLKKPKTFHKNQRRVFRAPDLKGMLDMFRELTDA
notes: vector-derived spacer between the His6 tag and E83 of TRIM5αrh; also called LLER variant; source: E. coli BL21(DE3)pLysS, purified (Ni-NTA, anion exchange, SEC); not shown: His6, N-terminal, kept

Legend:
[1] = molecular target: the molecule itself; assay: SEC; Superdex 200 (10/30) column calibrated with globular molecular-weight markers, PBS; for LLER also with 25 μM ZnCl2 and DTT (profile not significantly affected)
[2] = molecular target: the molecule itself; assay: single-particle cryo-electron microscopy; peak 1 and peak 2 gel-filtration fractions of LLER; peak 2 also incubated with an anti-His6 antibody to count the tags in a particle
[3] = molecular target: the molecule itself; assay: SEC-MALS; SEC-LS: about 300 μg LLER on Superose 6 HR 10/30 with in-line Dawn EOS light scattering, refractometer and UV detector

Protein	binding result [1]	stoichiometry N [2]	stoichiometry N [3]
B1	binds	–	–
B2	–	≥ 2	2
